The text below walks through data of patent publication US20250250357A1.

The target in assay [1] is human MSLN-R2-his protein (human) (UniProt Q13421). Nature of the assay: ELISA, coated MSLN-R2. (In general: ELISA stands for enzyme-linked immunosorbent assay.)
Assay [2] addresses human MSLN-R3-3 polypeptide (human). Nature of the assay: ELISA; antibody 1 nM.
The target of assay [3] is human MSLN protein, endogenously expressed on Hela and OVCAR3 cells (human) (UniProt Q13421). Nature of the assay: FACS on OVCAR3 cells; antibody […].
For assay [4] the target is unchanged. As to the kind of experiment: FACS on OVCAR3 cells; antibody 4 nM.
Assay [5] shares this target. As to the kind of experiment: FACS on OVCAR3 cells; antibody 20 nM.
Assay [6] shares this target. As to the kind of experiment: FACS on OVCAR3 cells; antibody 0.8 nM.
Assay [7] shares this target. As to the kind of experiment: FACS on OVCAR3 cells; antibody 100 nM.
For assay [8] the target is unchanged. Nature of the assay: FACS on OVCAR3 cells; antibody 0.032 nM.
The target is the same in assay [9]. Nature of the assay: FACS on OVCAR3 cells; antibody 0.0064 nM.
The target is the same in assay [10]. Nature of the assay: FACS on OVCAR3 cells; antibody 0.00128 nM.
The target in assay [11] is human MSLN full-length protein (NCBI: AAH09272.1) on stably transfected CHO-K1 or HEK293T cells (human) (UniProt Q13421). Nature of the assay: FACS on CHO-K1-hMSLN-2C8 cells; antibody […].
Assay [12] shares this target. As to the kind of experiment: FACS on CHO-K1-hMSLN-2C8 cells; antibody 4 nM.
Assay [13] shares this target. As to the kind of experiment: FACS on CHO-K1-hMSLN-2C8 cells; antibody 20 nM.
Assay [14] shares this target. Nature of the assay: FACS on CHO-K1-hMSLN-2C8 cells; antibody 0.8 nM.
Assay [15] shares this target. As to the kind of experiment: FACS on CHO-K1-hMSLN-2C8 cells; antibody 100 nM.
The target in assay [16] is monkey MSLN full-length protein (NCBI: XP_028696439.1) on HEK293T cells (monkey). As to the kind of experiment: FACS on HEK293T-monkey MSLN cells; antibody […].
Assay [17] has the same target. Nature of the assay: FACS on HEK293T-monkey MSLN cells; antibody 4 nM.
Assay [18] has as its target human MSLN full-length protein (NCBI: AAH09272.1) on stably transfected CHO-K1 or HEK293T cells (human) (UniProt Q13421). As to the kind of experiment: FACS on CHO-K1-hMSLN-2C8 cells; antibody 0.032 nM.
For assay [19], the target named is monkey MSLN full-length protein (NCBI: XP_028696439.1) on HEK293T cells (monkey). Nature of the assay: FACS on HEK293T-monkey MSLN cells; antibody 20 nM.
The target in assay [20] is human MSLN full-length protein (NCBI: AAH09272.1) on stably transfected CHO-K1 or HEK293T cells (human) (UniProt Q13421). Nature of the assay: FACS on CHO-K1-hMSLN-2C8 cells; antibody 0.0064 nM.
Assay [21] deals with monkey MSLN full-length protein (NCBI: XP_028696439.1) on HEK293T cells (monkey). Nature of the assay: FACS on HEK293T-monkey MSLN cells; antibody 0.8 nM.
For assay [22] the target is unchanged. As to the kind of experiment: FACS on HEK293T-monkey MSLN cells; antibody 100 nM.
Assay [23] addresses human MSLN full-length protein (NCBI: AAH09272.1) on stably transfected CHO-K1 or HEK293T cells (human) (UniProt Q13421). Nature of the assay: FACS on CHO-K1-hMSLN-2C8 cells; antibody 0.00128 nM.
For assay [24], the target named is monkey MSLN full-length protein (NCBI: XP_028696439.1) on HEK293T cells (monkey). As to the kind of experiment: FACS on HEK293T-monkey MSLN cells; antibody 0.032 nM.
Assay [25] shares this target. Nature of the assay: FACS on HEK293T-monkey MSLN cells; antibody 0.0064 nM.
Assay [26] has the same target. As to the kind of experiment: FACS on HEK293T-monkey MSLN cells; antibody 0.00128 nM.

Chain of human MSLN protein, endogenously expressed on Hela and OVCAR3 cells (human) (Q13421 other isoform, or with tags, fused parts or gaps): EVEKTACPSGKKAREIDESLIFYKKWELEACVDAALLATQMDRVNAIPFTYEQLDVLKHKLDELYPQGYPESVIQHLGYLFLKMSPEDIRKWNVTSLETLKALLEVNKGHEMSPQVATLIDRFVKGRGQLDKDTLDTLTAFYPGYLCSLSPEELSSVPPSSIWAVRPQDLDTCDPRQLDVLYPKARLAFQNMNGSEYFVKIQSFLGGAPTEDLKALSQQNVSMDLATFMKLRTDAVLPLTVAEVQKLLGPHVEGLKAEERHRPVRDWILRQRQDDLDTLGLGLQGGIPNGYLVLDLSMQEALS
Chain of human MSLN-R2-his protein (human) (Q13421 other isoform, or with tags, fused parts or gaps): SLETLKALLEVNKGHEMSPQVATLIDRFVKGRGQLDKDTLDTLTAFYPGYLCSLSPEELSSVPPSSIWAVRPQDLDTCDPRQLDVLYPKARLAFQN

In turn, “Tab108 (YP218, scFv-hIgG1 Fc) (Fc fusion)” displayed an OD450 at 0.0001 nM in [1] of 0.03 OD450.
Substance “hIgG1 (human IgG1 subtype control of Example 1) (antibody)” yielded an OD450 nm in [2] of 0.06. In addition, the FACS fluorescence intensity stood at 74 in assay [3]; 74 in assay [4]; 78 in assay [5]; 76 in assay [6]; 93 in assay [7]; 75 in [8]. For the same substance, the FACS fluorescence intensity in assay [9] was 74; in assay [10] it was 75; in [11] it was 59; in assay [12], 110; in assay [13], 156; in assay [14] it was 80. Also, the FACS fluorescence intensity in assay [15] turned out to be 72; in assay [16], 85; in [17] it was 85; in assay [18], 59; in [19], 84; in [20], 65. Moreover, the FACS fluorescence intensity in assay [21] worked out at 87; in assay [22], 127; in assay [23], 116; in assay [24] it was 125; in assay [25] it was 85; in assay [26] it was 84.
